Assay results reported in US20220235140A1 (HEDGEHOG, published 2022).

Molecular target: T1, human endothelin receptor type A (human, UniProt P25101 21-427, limits assumed)
T1 construct: Immobilized on plates coated with human Galpha-i3 such that its extracellular regions were selectively exposed; also called ETA
T1 sequence (looked up): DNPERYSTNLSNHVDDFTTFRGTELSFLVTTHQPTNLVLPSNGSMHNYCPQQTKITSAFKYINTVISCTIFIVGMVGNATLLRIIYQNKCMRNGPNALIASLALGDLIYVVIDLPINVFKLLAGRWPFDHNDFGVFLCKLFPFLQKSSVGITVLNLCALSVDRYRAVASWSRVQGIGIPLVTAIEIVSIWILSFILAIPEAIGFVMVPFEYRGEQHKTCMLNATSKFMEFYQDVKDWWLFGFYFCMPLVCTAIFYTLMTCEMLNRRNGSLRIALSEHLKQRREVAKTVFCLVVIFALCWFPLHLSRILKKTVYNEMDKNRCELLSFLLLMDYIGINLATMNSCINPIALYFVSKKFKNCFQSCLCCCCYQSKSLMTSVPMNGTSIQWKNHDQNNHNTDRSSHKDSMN
Test: ELISA, ETA immobilized via human Galpha-i3, antibody titrated

- Kd: 26.1 nM
B1: AG8 (antibody, V domains shown)
VH: EVQLVESGAEVRKPGASVKVSCKASGYTFTSSDINWIRQATGQGLEWMGYMNPKNGNTDYAQKFQGRISMTRDSSISTAYMELSSLRSEDTAVYYCAKDRYGSGTYGFGMDVWGPGTLVT
VL: DIVMTQSPSAMSASVGDRVSITCRASQGINNYLAWFQQKPGKVPKRLMDVGSILQSGIPSRFRGRGSGTQFTLTISSLQAEDSGTYFCLQHNTYPLTFGPGTKVEIKR
